Experimental data reported in the supplement of paper PMC11246515.
± gives the standard deviation of the averaged measurements.

Assay: total protein half-life in vivo (active degradation + dilution); higher = more stable protein
[1] = E. coli NCM3722 delta-clpP delta-lon delta-hslV, growth: N-lim chemostat, doubling time 6 h
[2] = E. coli NCM3722 delta-smpB, growth: N-lim chemostat, doubling time 6 h
[3] = wild type E. coli NCM3722, growth: C-lim chemostat, doubling time 3 h
[4] = wild type E. coli NCM3722, growth: C-lim chemostat, doubling time 6 h
[5] = wild type E. coli NCM3722, growth: C-lim chemostat, doubling time 12 h
[6] = wild type E. coli NCM3722, growth: N-lim chemostat, doubling time 6 h
[7] = wild type E. coli NCM3722, growth: P-lim chemostat, doubling time 6 h
[8] = wild type E. coli NCM3722, growth: P-lim chemostat, doubling time 12 h
[9] = E. coli NCM3722 delta-clpP, growth: N-lim chemostat, doubling time 6 h
[10] = E. coli NCM3722 delta-hslV, growth: N-lim chemostat, doubling time 6 h
[11] = E. coli NCM3722 delta-lon, growth: N-lim chemostat, doubling time 6 h
[12] = wild type E. coli NCM3722, growth: N-lim chemostat, doubling time 12 h

Row | Substance | total protein half-life in vivo [1] [h] | total protein half-life in vivo [2] [h] | total protein half-life in vivo [3] [h] | total protein half-life in vivo [4] [h] | total protein half-life in vivo [5] [h] | total protein half-life in vivo [6] [h] | total protein half-life in vivo [7] [h] | total protein half-life in vivo [8] [h] | total protein half-life in vivo [9] [h] | total protein half-life in vivo [10] [h] | total protein half-life in vivo [11] [h] | total protein half-life in vivo [12] [h]
1 | MKSILIEKPNQLAIVEREIPTPSAGEVRVKVKLAGICGSDSHIYRGHNPFAKYPRVIGHEFFGVIDAVGEGVESARVGERVAVDPVVSCGHCYPCSIGKPNVCTTLAVLGVHADGGFSEYAVVPAKNAWKIPEAVADQYAVMIEPFTIAANVTGHGQPTENDTVLVYGAGPIGLTIVQVLKGVYNVKNVIVADRIDERLEKAKESGADWAINNSQTPLGEIFTEKGIKPTLIIDAACHPSILKEAVTLASPAARIVLMGFSSEPSEVIQQGITGKELSIFSSRLNANKFPIVIDWLSKGLIKPEKLITHTFDFQHVADAISLFEQDQKHCCKVLLTFSE | 3.84 ± 0.53 | 2.11 | 2.26 ± 0.28 | 3.455 ± 0.03 | 8.98 ± 3.8 | 2.37 | 4.75 | 7.18 | – | – | – | –
2 | MTLLALGINHKTAPVSLRERVSFSPDKLDQALDSLLAQPMVQGGVVLSTCNRTELYLSVEEQDNLQEALIRWLCDYHNLNEEDLRKSLYWHQDNDAVSHLMRVASGLDSLVLGEPQILGQVKKAFADSQKGHMKASELERMFQKSFSVAKRVRTETDIGASAVSVAFAACTLARQIFESLSTVTVLLVGAGETIELVARHLREHKVQKMIIANRTRERAQILADEVGAEVIALSDIDERLREADIIISSTASPLPIIGKGMVERALKSRRNQPMLLVDIAVPRDVEPEVGKLANAYLYSVDDLQSIISHNLAQRKAAAVEAETIVAQETSEFMAWLRAQSASETIREYRSQAEQVRDELTAKALAALEQGGDAQAIMQDLAWKLTNRLIHAPTKSLQQAARDGDNERLNILRDSLGLE [P0A6X1] | 4.33 ± 0.069 | 1.51 ± 0.25 | 1.03 | 1.84 ± 0.15 | 2.76 ± 0.68 | 1.35 ± 0.31 | 1.29 ± 0.43 | 1.9 | 2.95 ± 0.26 | 1.55 | 1.59 ± 0.083 | 2.08
3 | MSEQNNTEMTFQIQRIYTKDISFEAPNAPHVFQKDWQPEVKLDLDTASSQLADDVYEVVLRVTVTASLGEETAFLCEVQQGGIFSIAGIEGTQMAHCLGAYCPNILFPYARECITSMVSRGTFPQLNLAPVNFDALFMNYLQQQAGEGTEEHQDA [P0AG86] | 5.809 ± 0.028 | 5.16 ± 0.59 | 2.91 ± 0.79 | 7.35 ± 0.53 | 11.2 ± 1.2 | 5.17 ± 0.34 | – | 13.8 ± 2.5 | 5.336 ± 0.019 | – | 6.08 ± 0.59 | 9.15
4 | MAESFTTTNRYFDNKHYPRGFSRHGDFTIKEAQLLERHGYAFNELDLGKREPVTEEEKLFVAVCRGEREPVTEAERVWSKYMTRIKRPKRFHTLSGGKPQVEGAEDYTDSDD [P0ADN2] | – | 3.28 ± 0.088 | 2.19 ± 0.043 | 4.55 ± 0.35 | 5.73 | 3.09 ± 0.15 | 3.14 ± 0.43 | 5.53 ± 0.6 | – | – | 5.14 ± 0.96 | 5.68 ± 0.092
5 | P0ADE2 | 1.56 | – | – | 0.174 | – | – | 0.104 | 0.888 ± 0.58 | – | – | – | –
6 | MQAATVVINRRALRHNLQRLRELAPASKMVAVVKANAYGHGLLETARTLPDADAFGVARLEEALRLRAGGITKPVLLLEGFFDARDLPTISAQHFHTAVHNEEQLAALEEASLDEPVTVWMKLDTGMHRLGVRPEQAEAFYHRLTQCKNVRQPVNIVSHFARADEPKCGATEKQLAIFNTFCEGKPGQRSIAASGGILLWPQSHFDWVRPGIILYGVSPLEDRSTGADFGCQPVMSLTSSLIAVREHKAGEPVGYGGTWVSERDTRLGVVAMGYGDGYPRAAPSGTPVLVNGREVPIVGRVAMDMICVDLGPQAQDKAGDPVILWGEGLPVERIAEMTKVSAYELITRLTSRVAMKYVD [P0A6B4] | 5.14 ± 0.16 | 4.58 ± 1.3 | 3.1 ± 0.046 | 5.75 ± 0.44 | 11 ± 1.9 | 4.39 ± 0.14 | 5.87 ± 0.2 | 11.53 ± 0.057 | 4.27 ± 0.085 | 5.12 ± 0.41 | 4.99 ± 0.29 | 7.99 ± 0.34
7 | MSTPDFSTAENNQELANEVSCLKAMLTLMLQAMGQADAGRVMLKMEKQLALIEDETQAAVFSKTVKQIKQAYRQ [P0AD07] | – | – | – | – | – | – | – | 7.56 ± 2.9 | – | – | – | –
8 | MAMVEMQTTAALAESRRKMQARRRLKNRIALTLSMATMAFGLFWLIWILMSTITRGIDGMSLALFTEMTPPPNTEGGGLANALAGSGLLILWATVFGTPLGIMAGIYLAEYGRKSWLAEVIRFINDILLSAPSIVVGLFVYTIVVAQMEHFSGWAGVIALALLQVPIVIRTTENMLKLVPYSLREAAYALGTPKWKMISAITLKASVSGIMTGILLAIARIAGETAPLLFTALSNQFWSTDMMQPIANLPVTIFKFAMSPFAEWQQLAWAGVLIITLCVLLLNILARVVFAKNKHG | 6.78 ± 1.7 | 4.97 ± 0.05 | 3.37 | 5.11 ± 0.51 | 12.1 ± 1.3 | 5.15 ± 0.12 | 4.95 ± 0.35 | 9.13 ± 0.56 | 5.74 ± 0.15 | > 8 | 4.84 | 10.6 ± 2
9 | MLPPYFLFKEMTDTQYIGRFAPSPSGELHFGSLIAALGSYLQARARQGRWLVRIEDIDPPREVPGAAETILRQLEHYGLHWDGDVLWQSQRHDAYREALAWLHEQGLSYYCTCTRARIQSIGGIYDGHCRVLHHGPDNAAVRIRQQHPVTQFTDQLRGIIHADEKLAREDFIIHRRDGLFAYNLAVVVDDHFQGVTEIVRGADLIEPTVRQISLYQLFGWKVPDYIHLPLALNPQGAKLSKQNHAPALPKGDPRPVLIAALQFLGQQAEAHWQDFSVEQILQSAVKNWRLTAVPESAIVNSTFSNASC | – | 3.67 ± 0.12 | 3.26 ± 0.7 | 5.73 | 3.64 | 3.84 | 4.7 | 9.87 ± 0.39 | 3.9 | – | 5.27 | –
10 | MAEFPASLLILNGKSTDNLPLREAIMLLREEGMTIHVRVTWEKGDAARYVEEARKFGVATVIAGGGDGTINEVSTALIQCEGDDIPALGILPLGTANDFATSVGIPEALDKALKLAIAGDAIAIDMAQVNKQTCFINMATGGFGTRITTETPEKLKAALGSVSYIIHGLMRMDTLQPDRCEIRGENFHWQGDALVIGIGNGRQAGGGQQLCPNALINDGLLQLRIFTGDEILPALVSTLKSDEDNPNIIEGASSWFDIQAPHDITFNLDGEPLSGQNFHIEILPAALRCRLPPDCPLLR | 5 ± 0.044 | 4.31 ± 0.74 | 3.19 ± 0.41 | 5.73 ± 0.4 | 9.08 ± 0.56 | 4.51 ± 0.3 | 5.17 ± 0.48 | 9.75 ± 0.16 | 4.23 ± 0.21 | 3.94 ± 0.33 | 4.69 ± 0.069 | 7.91 ± 0.14
11 | MRSSAKQEELVKAFKALLKEEKFSSQGEIVAALQEQGFDNINQSKVSRMLTKFGAVRTRNAKMEMVYCLPAELGVPTTSSPLKNLVLDIDYNDAVVVIHTSPGAAQLIARLLDSLGKAEGILGTIAGDDTIFTTPANGFTVKDLYEAILELFDQEL [P0A6D0] | 5.74 | 6.3 ± 1.1 | 3.07 ± 0.25 | 5.2 ± 1 | 10.7 ± 1.8 | 5.26 ± 0.67 | 4.85 ± 0.56 | 11.8 ± 0.96 | 5.76 ± 0.36 | 5.36 ± 0.18 | 6.26 | 10.5
12 | MKVAVLGAAGGIGQALALLLKTQLPSGSELSLYDIAPVTPGVAVDLSHIPTAVKIKGFSGEDATPALEGADVVLISAGVARKPGMDRSDLFNVNAGIVKNLVQQVAKTCPKACIGIITNPVNTTVAIAAEVLKKAGVYDKNKLFGVTTLDIIRSNTFVAELKGKQPGEVEVPVIGGHSGVTILPLLSQVPGVSFTEQEVADLTKRIQNAGTEVVEAKAGGGSATLSMGQAAARFGLSLVRALQGEQGVVECAYVEGDGQYARFFSQPLLLGKNGVEERKSIGTLSAFEQNALEGMLDTLKKDIALGEEFVNK | 4.53 ± 0.53 | 3.84 ± 0.068 | 3.039 ± 0.028 | 5.65 ± 0.34 | 9.69 ± 0.74 | 3.98 ± 0.16 | 5.94 ± 0.074 | 11.8 ± 0.51 | 3.92 ± 0.44 | 3.803 ± 0.013 | 4.42 ± 0.25 | 6.2 ± 0.2
13 | MDEFKPEDELKPDPSDRRTGRSRQSSERSERTERGEPQINFDDIELDDTDDRRPTRAQKERNEEPEIEEEIDESEDETVDEERVERRPRKRKKAASKPASRQYMMMGVGILVLLLLIIGIGSALKAPSTTSSDQTASGEKSIDLAGNATDQANGVQPAPGTTSAENTQQDVSLPPISSTPTQGQTPVATDGQQRVEVQGDLNNALTQPQNQQQLNNVAVNSTLPTEPATVAPVRNGNASRDTAKTQTAERPSTTRPARQQAVIEPKKPQATVKTEPKPVAQTPKRTEPAAPVASTKAPAATSTPAPKETATTAPVQTASPAQTTATPAAGAKTAGNVGSLKSAPSSHYTLQLSSSSNYDNLNGWAKKENLKNYVVYETTRNGQPWYVLVSGVYASKEEAKKAVSTLPADVQAKNPWAKPLRQVQADLK | 5.8 ± 0.35 | 5.54 ± 0.12 | 2.84 ± 0.091 | 5.51 ± 0.26 | 9.07 ± 0.37 | 5.58 ± 0.49 | 5.099 ± 0.038 | 10.285 ± 0.01 | 6.01 ± 0.27 | 5.595 ± 0.021 | 5.74 ± 0.32 | 11.9 ± 2
14 | MFSGLLIILVPLIVGYLIPLRQQAALKVINQLLSWMVYLILFFMGISLAFLDNLASNLLAILHYSAVSITVILLCNIAALMWLERGLPWRNHHQQEKLPSRIAMALESLKLCGVVVIGFAIGLSGLAFLQHATEASEYTLILLLFLVGIQLRNNGMTLKQIVLNRRGMIVAVVVVVSSLIGGLINAFILDLPINTALAMASGFGWYSLSGILLTESFGPVIGSAAFFNDLARELIAIMLIPGLIRRSRSTALGLCGATSMDFTLPVLQRTGGLDMVPAAIVHGFILSLLVPILIAFFSA | – | – | – | 3.12 | – | – | – | 8.67 ± 0.3 | – | – | – | 8.87
